This note sets out measurements from patent US20210206882A1 (AB STUDIO, published 2021).

One experiment concerns the target T1, CD55 (UniProt P08174 35-353, limits assumed).
T1 construct: In the internalization assay CD55 stood on MDA231 and SIHA cells
T1 sequence (looked up): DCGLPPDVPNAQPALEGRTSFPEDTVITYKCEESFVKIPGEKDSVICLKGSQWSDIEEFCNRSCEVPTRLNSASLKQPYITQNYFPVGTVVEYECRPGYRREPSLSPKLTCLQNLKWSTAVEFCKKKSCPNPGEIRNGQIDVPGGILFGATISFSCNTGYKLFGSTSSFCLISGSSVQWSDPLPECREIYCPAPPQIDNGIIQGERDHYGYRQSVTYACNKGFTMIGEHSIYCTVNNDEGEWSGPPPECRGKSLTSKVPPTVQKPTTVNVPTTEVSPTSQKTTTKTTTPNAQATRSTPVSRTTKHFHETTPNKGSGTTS
Description: flow cytometry cell binding on MDA231 cells (Cy3 goat anti-human IgG); antibody concentration not given. In general terms: A flow cytometer gives signals particle by particle.

Another experiment concerns the target PD-L1 (UniProt Q9NZQ7 19-290, limits assumed). Described as above.
Experiment [1] deals with T2, CD20 (on CD20 positive Raji cells) (UniProt P11836 1-297, limits assumed).
T2 construct: whole, on cells; Raji is a human B cell line
T2 sequence (looked up): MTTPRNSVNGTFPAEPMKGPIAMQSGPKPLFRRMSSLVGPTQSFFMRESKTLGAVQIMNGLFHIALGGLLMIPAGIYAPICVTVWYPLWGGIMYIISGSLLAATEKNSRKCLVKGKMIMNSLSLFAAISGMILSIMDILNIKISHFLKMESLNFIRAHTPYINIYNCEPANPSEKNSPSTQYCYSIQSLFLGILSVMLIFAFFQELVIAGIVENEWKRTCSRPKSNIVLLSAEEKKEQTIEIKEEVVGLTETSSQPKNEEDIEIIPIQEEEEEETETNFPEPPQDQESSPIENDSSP
Description: flow cytometry cell binding on CD20+ Raji cells, 3-fold titration 10 to 0.04 µg/ml and 0.

As a reminder, the EC50 (read off the curve) is the concentration at which the effect is half-maximal.

Residue numbers refer to the chain shown, from its start. Numbers in names are those of the source.

Sequence of PD-L1 (Q9NZQ7 19-290 limits assumed): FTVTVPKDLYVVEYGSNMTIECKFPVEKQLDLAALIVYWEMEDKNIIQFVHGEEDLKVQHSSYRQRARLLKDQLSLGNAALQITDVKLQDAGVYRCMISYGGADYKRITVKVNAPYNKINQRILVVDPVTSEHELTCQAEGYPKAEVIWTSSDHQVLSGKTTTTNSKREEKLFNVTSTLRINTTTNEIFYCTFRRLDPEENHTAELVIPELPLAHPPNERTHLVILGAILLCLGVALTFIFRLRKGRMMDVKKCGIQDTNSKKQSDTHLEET

B1: parental anti-CD55 antibody (CD55 wt) (antibody, V domains shown)
VH: QVKLQESGGGLVQPGGSLKLSCAASGFTFSGYGMSWIRQTPDKRLEWVATINSGGSYTYYSDSVKGRFTISRDNVKNTLYLQMSSLKSEDTAMYYCARRNGTLYYYLMDYWGRGTLVTVSS
VL: QSVLTQPPSASGSPGQSVTISCTGTSSDVGGYNYVSWYQQHPGKAPKFMIYDVSKRPSGVSNRFSGSKSGNTASLTISGVQAEDEADYYCSSYTSASTVIFGGGTKLTVL
notes: The variable domains come from a published CD55 scFv; also called CD55 parental Ab; anti-CD55 parental monoclonal antibody
In the case of B1, the binding result in the experiment with CD55 is on record as “binds”.

B2: Anti-PD-L1 homodimer IgG (PD-L1 v1) containing the designed VH sequence (SEQ ID NO: 4) and the common VL sequence (SEQ ID NO: 6) (antibody, V domains shown)
VH: EVQLLESGGGLVEPGGSLRLSCAASGFTFSSYIMMWVRQAPGKGLEWVSSIYPSGGITFYADTVKGRFTISRDNSKNTLYLQMNSLRAEDTAVYYCARIKLGTVTTVDYWGEGTLVTVSS
VL: QSALTQPASVSGSPGQSITISCTGTSSDVGGYNYVSWYQQHPGKAPKLMIYDVSKRPSGVSNRFSGSKSGNTASLTISGLQAEDEADYYCSSYTSASTRIFGGGTKVTVLR
notes: Homodimer IgG; The heavy chain constant region of the homodimer is not specified; also called PD-L1 mono-dimer IgG; PDL1 homodimer version 1
Turning to B2, the binding result in the experiment with PD-L1 is reported as “binds”.

B3: Anti-CD55 homodimer IgG (CD55 v1) containing the designed VH sequence (SEQ ID NO: 5) and the common VL sequence (SEQ ID NO: 6) (antibody, V domains shown)
VH: B1 VH with Q13K, D42G
VL: B2 VL
notes: Homodimer IgG; also called CD55 mono-dimer IgG; CD55 homodimer version 1
With B3, the binding result with CD55 was “binds”.

B4: parental anti-CD20 IgG (Rituximab) (antibody, V domains shown)
VH: QVQLQQPGAELVKPGASVKMSCKASGYTFTSYNMHWVKQTPGRGLEWIGAIYPGNGDTSYNQKFKGKATLTADKSSSTAYMQLSSLTSEDSAVYYCARSTYYGGDWYFNVWGAGTTVTVSA
VL: QIVLSQSPAILSASPGEKVTMTCRASSSVSYIHWFQQKPGSSPKPWIYATSNLASGVPVRFSGSGSGTSYSLTISRVEAEDAATYYCQQWTSNPPTFGGGTKLEIKR
notes: tested as IgG; also called Parental CD20; CD20 parental Ab
On to B4, for which the “EC50 (read off the curve)” value in experiment [1] is approximately 0.2 µg/mL.

B5: parental anti-CD3 IgG (MAb 12F6) (antibody, V domains shown)
VH: QVQLQQSGAELARPGASVKMSCKASGYTFTSYTMHWVKQRPGQGLEWIGYINPSSGYTKYNQKFKDKATLTADKSSSTAYMQLSSLTSEDSAVYYCARWQDYDVYFDYWGQGTTLTVSS
VL: B4 VL with I32M, F35Y, V59A, T91S, I105T
notes: tested as IgG; also called Parental CD3; CD3 parental Ab
Consider B5, for which, in experiment [1], the binding result is given as “no binding (tested: 10 µg/ml)”.

B6: CD20 homodimer IgG containing the designed VH sequence (SEQ ID NO: 1) and the common VL sequence (SEQ ID NO: 3) (antibody, V domains shown)
VH: B4 VH with T87R
VL: B4 VL
notes: Homodimer IgG with two VHa and two common VL; VHa is the Rituximab VH with T83R (Kabat); also called redesigned Rituximab; antibody A
Turning to B6, the “EC50 (read off the curve)” value in experiment [1] is approximately 0.4 µg/mL.

B7: CD3 homodimer IgG containing the designed VH sequence (SEQ ID NO: 2) and the common VL sequence (SEQ ID NO: 3) (antibody, V domains shown)
VH: B5 VH with Q1E, Q6E, Q43E, Q82E, Q111E
VL: B4 VL
notes: Homodimer IgG with two VHb and two common VL; also called redesigned 12F6; antibody B
Turning to B7, the binding result in experiment [1] was “no binding (tested: 10 µg/ml)”.
